Consider 4 molecules from patent US20240108766A1 (Bayer, published 2024).

In test [1] the target is T1, human LRRC15 extracellular domain with C-terminal His tag (human, UniProt Q8TF66 22-538).
T1 construct: Recombinant, made in HEK293; the entry holds the extracellular domain and the His tag; SPR analyte; also called TPP-1545; hLRRC15 CT-His
T1 sequence: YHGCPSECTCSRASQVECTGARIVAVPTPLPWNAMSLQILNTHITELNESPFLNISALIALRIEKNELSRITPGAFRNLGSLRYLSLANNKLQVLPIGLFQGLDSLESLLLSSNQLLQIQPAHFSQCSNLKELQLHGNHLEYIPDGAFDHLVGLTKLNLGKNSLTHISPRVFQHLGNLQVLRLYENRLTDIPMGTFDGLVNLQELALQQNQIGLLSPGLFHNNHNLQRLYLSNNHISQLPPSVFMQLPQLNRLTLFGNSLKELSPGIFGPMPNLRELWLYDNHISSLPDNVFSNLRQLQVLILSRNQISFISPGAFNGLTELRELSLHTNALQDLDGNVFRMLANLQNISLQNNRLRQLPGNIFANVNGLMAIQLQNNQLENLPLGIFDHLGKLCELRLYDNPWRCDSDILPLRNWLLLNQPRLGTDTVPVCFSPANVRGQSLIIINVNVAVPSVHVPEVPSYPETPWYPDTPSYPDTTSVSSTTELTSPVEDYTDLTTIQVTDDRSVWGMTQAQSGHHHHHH
The experiment in a line: calculated from SPR kd, 20°C. How it is done: To assess if anti-LRRC-15 antibodies show a difference in binding at different temperatures, binding assays were conducted using surface plasmon resonance (SPR). Binding assays were performed on a Biacore T200 instrument at temperatures of 10° C., 20° C., 25° C. and 37° C. with assay buffer HBS EP+, 1 mg/ml BSA (bovine serum albumine), 300 mM NaCl, 0.05% NaN₃. Antibodies were captured via anti-human Fc IgGs covalently amine coupled to a CM5 sensor chip and human LRRC15 was used as an analyte in a concentration series from 1.56-200 nM in multi cycle kinetics mode. Pre-experiments were conducted to have an equal capture level at each temperature. Obtained sensorgrams were fitted to a 1:1 Langmuir binding model to derive kinetic data.

Test [2] addresses T2, cynomolgus (Macaca fascicularis) LRRC15 extracellular domain with C-terminal His tag (cynomolgus monkey (Macaca fascicularis), UniProt Q8TF66 22-538 (human entry)).
T2 construct: Recombinant, made in HEK293; the entry holds the extracellular domain and the His tag; SPR analyte; also called TPP-9046
T2 chain: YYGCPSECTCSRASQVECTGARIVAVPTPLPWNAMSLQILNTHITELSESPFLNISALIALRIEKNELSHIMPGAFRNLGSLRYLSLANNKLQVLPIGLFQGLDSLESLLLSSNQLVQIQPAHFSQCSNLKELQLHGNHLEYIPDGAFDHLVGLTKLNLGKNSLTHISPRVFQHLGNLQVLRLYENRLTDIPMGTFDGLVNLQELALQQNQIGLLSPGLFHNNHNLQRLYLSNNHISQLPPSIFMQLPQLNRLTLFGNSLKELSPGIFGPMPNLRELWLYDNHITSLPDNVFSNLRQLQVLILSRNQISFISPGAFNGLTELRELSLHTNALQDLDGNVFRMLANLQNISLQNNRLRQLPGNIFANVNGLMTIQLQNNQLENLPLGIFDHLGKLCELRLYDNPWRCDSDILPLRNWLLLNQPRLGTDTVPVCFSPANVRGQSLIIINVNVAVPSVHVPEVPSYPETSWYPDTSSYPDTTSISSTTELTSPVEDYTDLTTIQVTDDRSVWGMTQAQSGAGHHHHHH
The test can be described thus: SPR (Example 6), overview table, repeats Table 9; head prints [M^-1].

Test [3] addresses T3, human LRRC15 expressed on cells (human, UniProt Q8TF66 22-581).
T3 construct: whole, on cells; On HEK293 cells transfected with LRRC15/ZsGreen1 (Retrogenix), on HT29 cells transfected with human LRRC15, and endogenous on Saos-2; also called LRRC15/ZsGreen1 transfected HEK293 cells; HT29-LRRC15
T3 sequence (looked up): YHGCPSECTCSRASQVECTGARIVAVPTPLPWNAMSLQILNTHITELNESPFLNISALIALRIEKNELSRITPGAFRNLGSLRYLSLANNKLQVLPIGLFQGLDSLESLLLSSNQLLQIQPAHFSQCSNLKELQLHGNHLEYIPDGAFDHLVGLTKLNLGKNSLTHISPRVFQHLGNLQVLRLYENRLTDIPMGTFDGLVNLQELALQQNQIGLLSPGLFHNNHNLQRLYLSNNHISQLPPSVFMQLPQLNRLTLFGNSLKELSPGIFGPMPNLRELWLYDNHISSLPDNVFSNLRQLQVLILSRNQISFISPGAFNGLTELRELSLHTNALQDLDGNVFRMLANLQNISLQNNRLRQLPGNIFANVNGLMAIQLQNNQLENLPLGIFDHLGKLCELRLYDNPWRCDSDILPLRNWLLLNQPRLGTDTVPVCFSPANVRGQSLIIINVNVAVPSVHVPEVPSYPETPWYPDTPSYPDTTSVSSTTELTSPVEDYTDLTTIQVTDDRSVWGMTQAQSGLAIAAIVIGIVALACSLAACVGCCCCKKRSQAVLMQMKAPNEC
The test can be described thus: flow cytometry, transfected HEK293, 0 µg/ml. (A flow cytometer gives signals particle by particle.)

Test [4] addresses T3, human LRRC15 expressed on cells. The test can be described thus: flow cytometry, transfected HEK293, 0.5 µg/ml.
Test [5] has the same target. The test can be described thus: flow cytometry, transfected HEK293, 0.02 µg/ml.
The target is the same in test [6]. The experiment in a line: flow cytometry, transfected HEK293, 0.004 µg/ml.
For test [7] the target is unchanged. The experiment in a line: flow cytometry, transfected HEK293, 12.5 µg/ml.
The target is the same in test [8]. The test can be described thus: flow cytometry, transfected HEK293, 0.1 µg/ml.

B1: TPP-14389 (antibody, human IgG1, kappa, V domains shown)
VH: EVQLLESGGGLVQPGGSLRLSCAASGFTFSGYMMSWVRQAPGKGLEWVSGIYPSPGYTYYADSVKGRFTISRDNSKNTLYLQMNSLRAEDTAVYYCAREKASDLFGSYSEALDYWGQGTLVTVSS
VL: DIQMTQSPDSLSASVGDRVTITCRASQDVGSWLAWYQQKPGKAPKLLIFAASSLESGIPSRFSGSGSGTDFTLTISSLQPEDFATYYCQQANGFPLTFGGGTKVEIKR
notes: also called 13612-rec02-hIgG1Kappa
As for B1, in test [1], the “Complex Half Life” value was 0.41 h. For the same molecule, the Kd (as a rule, the free concentration of one partner at which half of the binding sites on the other are occupied at equilibrium, for simple one-to-one binding) in test [2] came out at 9 nM.

B2: TPP-12942 (antibody, human IgG1, kappa, V domains shown)
VH: EVQLVQSGAEVKKPGASVKVSCKASGYKFSSYWIEWVKQAPGQGLEWIGEILPGSDTTNYNEKFKDRATFTSDTSINTAYMELSRLRSDDTAVYYCARDRGNYRAWFGYWGQGTLVTVSS
VL: DIQMTQSPSSLSASVGDRVTITCRASQDISNYLNWYQQKPGGAVKFLIYYTSRLHSGVPSRFSGSGSGTDYTLTISSLQPEDFATYFCQQGEALPWTFGGGTKVEIKR
notes: Prior art humanized IgG1 kappa antibody, used as comparator; also called huM25; huM25-hIgG1Kappa
Regarding B2, the “Median Fluorescence AF647” value in test [3] is 594; in test [4], 524000; in test [5], 63400; in test [6], 19800; in test [7], 726000; in test [8], 213000. Moreover, the “Complex Half Life” value in test [1] was 0.218 h. Further, in test [2], the Kd amounted to 36 nM.

B3: TPP-17078 (antibody, human IgG1, kappa, V domains shown)
VH: EVQLVQSGAEVKKPGASVKVSCKASGYKFSSYWIEWVKQAPGQGLEWIGEILPGSDTTNYNEKFKDRATFTSDTSINTAYMELSRLRSDDTAVYYCARDRGNYRAWFGYWGQGTLVTVSS
VL: DIQMTQSPSSLSASVGDRVTITCRASQSISSYLNWYQQKPGGAPKFLIYYASSLQSGVPSRFSGSGSGTDYTLTISSLQPEDFATYYCQQGFSLPWTFGGGTKVEIKR
notes: also called 438H-M308-H05-hIgGkappa
As to B3, the “Median Fluorescence AF647” value in test [3] amounted to 597; in test [4], 527000; in test [5], 83700; in test [6], 27600; in test [7], 707000; in test [8], 284000. Also, in test [1], the “Complex Half Life” value was 4.18 h. Besides, the Kd in test [2] stood at 1.8 nM.

B4: TPP-17421 (antibody, human IgG1, kappa, V domains shown)
VH: EVQLVQSGAEVKKPGASVKVSCKASGYKFSSYWIEWVKQAPGQGLEWIGEILPGSDWTNYNEKFKDRATFTSDTSINTAYMELSRLRSDDTAVYYCARDRGNYRAWFQYWGQGTLVTVSS
VL: DIQMTQSPSSLSASVGDRVTITCRASQSISSYLNWYQQKPGGAPKFLIYYASSLQSGVPSRFSGSGSGTDYTLTISSLQPEDFATYYCQQGLELPWTFGGGTKVEIKR
notes: also called 438H-M306-C11-hIgG1Kappa
For B4, the “Median Fluorescence AF647” value in test [3] was 588; in test [4], 391000; in test [5], 35200; in test [6] it was 13100; in test [7] it was 736000; in test [8] it was 102000. Moreover, the “Complex Half Life” value in test [1] was 4.48 h. This molecule also yielded a Kd in test [2] of 0.91 nM.
